Measured values: US20020009752A1 (DUKE UNIVERSITY, published 2002)
No end group written: not given here.

Columns and labels:
[1] = molecular target: T1, polyglutamine-glutathione-S-transferase fusion protein with 62 glutamines (UniProt Q156A1 2-63); assay: phage ELISA on immobilized Q62-GST and Q19-GST, anti-M13 antibody detection; reference Q19-GST
T1 construct: Vector construction is cited to Onodera et al. 1996; also called Q62-GST; Q62; not shown: glutathione-S-transferase (GST)

[2] = molecular target: T2, bovine serum albumin (bovine, UniProt P02769 25-607); assay: phage ELISA
T2 construct: also called BSA

[3] = molecular target: thioredoxin-polyglutamine fusion protein with 62 glutamines (Homo sapiens (Human), UniProt Q156A1 2-63); assay: cell-based or functional assay
[4] = molecular target: thioredoxin-polyglutamine fusion protein with 81 glutamines (Dictyostelium discoideum (Social amoeba), UniProt Q54DK4 734-1290); assay: cell-based or functional assay
thioredoxin-polyglutamine fusion protein with 81 glutamines, sequence (Q54DK4 other isoform, or with tags, fused parts or gaps): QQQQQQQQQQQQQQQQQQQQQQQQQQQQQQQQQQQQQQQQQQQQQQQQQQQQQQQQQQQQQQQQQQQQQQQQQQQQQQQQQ

T2 sequence (P02769 25-607 limits assumed): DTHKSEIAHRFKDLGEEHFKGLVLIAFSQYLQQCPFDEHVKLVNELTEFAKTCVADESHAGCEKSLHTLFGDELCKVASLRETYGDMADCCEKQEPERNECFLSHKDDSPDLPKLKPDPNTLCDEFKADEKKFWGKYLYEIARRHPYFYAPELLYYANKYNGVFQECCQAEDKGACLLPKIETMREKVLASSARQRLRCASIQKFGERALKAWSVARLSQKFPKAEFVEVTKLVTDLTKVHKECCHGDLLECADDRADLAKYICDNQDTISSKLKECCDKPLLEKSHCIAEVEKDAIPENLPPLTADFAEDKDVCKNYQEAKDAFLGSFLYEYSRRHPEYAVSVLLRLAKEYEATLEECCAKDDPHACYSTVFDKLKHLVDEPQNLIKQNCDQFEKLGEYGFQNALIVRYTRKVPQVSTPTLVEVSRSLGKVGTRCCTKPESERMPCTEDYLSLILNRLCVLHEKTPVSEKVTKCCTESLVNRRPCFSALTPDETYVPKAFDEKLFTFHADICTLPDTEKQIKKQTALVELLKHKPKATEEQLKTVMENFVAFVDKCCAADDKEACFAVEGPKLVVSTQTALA
T1 sequence (Q156A1 2-63): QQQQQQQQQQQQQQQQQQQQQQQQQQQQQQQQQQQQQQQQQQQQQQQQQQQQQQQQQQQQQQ
thioredoxin-polyglutamine fusion protein with 62 glutamines, sequence (Q156A1 2-63): as above

B1: QBP4 phage clone (Glutamine Binding Peptide 4 displayed on M13 phage) (peptide)
chain: WGLEHFAGNKR-pIII
notes: Assayed as purified M13 phage displaying the 11-mer at the amino terminus of pIII; not shown: pIII (Piii) capsid protein of phage M13; the 11-mer is added to its amino terminus; assayed as whole phage
- RATIO Q62/Q19 BINDING ELISA [1]: 1.27 ratio (phage bound to Q62-GST divided by phage bound to Q19-GST)
- binding result [2]: no binding

B2: QBP3 phage clone (Glutamine Binding Peptide 3 displayed on M13 phage) (peptide)
chain: HEWHWWHQEAA-pIII
notes: as for B1
- RATIO Q62/Q19 BINDING ELISA [1]: 1.3 ratio (phage bound to Q62-GST divided by phage bound to Q19-GST)
- binding result [2]: no binding

B3: QBP6 phage clone (Glutamine Binding Peptide 6 displayed on M13 phage) (peptide)
chain: WHNYFHWWQDT-pIII
notes: as for B1
- RATIO Q62/Q19 BINDING ELISA [1]: 1.23 ratio (phage bound to Q62-GST divided by phage bound to Q19-GST)
- binding result [2]: no binding

B4: QBP1 synthetic 11-mer peptide (glutamine binding peptide 1) (peptide)
peptide: Ac-SNWKWWPGIFD
- inhibition of thio-Q62 aggregation in vitro (turbidity at 405 nm) [3]: 3 molar ratio thio-Q62:QBP1 (3:1) for complete inhibition
- inhibition of thio-Q81 aggregation in vitro (turbidity at 405 nm) [4]: 10 fold molar excess of QBP1 over thio-Q81

B5: QBP5 phage clone (Glutamine Binding Peptide 5 displayed on M13 phage) (peptide)
chain: WWRWNWATPVD-pIII
notes: as for B1
- RATIO Q62/Q19 BINDING ELISA [1]: 1.25 ratio (phage bound to Q62-GST divided by phage bound to Q19-GST)
- binding result [2]: no binding

B6: QBP2 phage clone (Glutamine Binding Peptide 2 displayed on M13 phage) (peptide)
chain: HWWRSWYSDSV-pIII
notes: as for B1
- RATIO Q62/Q19 BINDING ELISA [1]: 1.31 ratio (phage bound to Q62-GST divided by phage bound to Q19-GST)
- binding result [2]: no binding

B7: QBP1 phage clone (Glutamine Binding Peptide 1 displayed on M13 phage) (peptide)
chain: SNWKWWPGIFD-pIII
notes: as for B1
- RATIO Q62/Q19 BINDING ELISA [1]: 1.66 ratio (phage bound to Q62-GST divided by phage bound to Q19-GST)
- binding result [2]: no binding
